Results on two molecules are retold here after PMC8752837, “Structural basis of BAK activation in mitochondrial apoptosis initiation” (Nature Communications, 2022).

By Kd is commonly meant the concentration at which binding is half-saturated.

Assay [1] deals with T1, MEAS-BAK-His6 (C-terminus truncated recombinant human BAK containing C-terminal 6x histidine tag) (human) (UniProt Q16611).
T1 sequence: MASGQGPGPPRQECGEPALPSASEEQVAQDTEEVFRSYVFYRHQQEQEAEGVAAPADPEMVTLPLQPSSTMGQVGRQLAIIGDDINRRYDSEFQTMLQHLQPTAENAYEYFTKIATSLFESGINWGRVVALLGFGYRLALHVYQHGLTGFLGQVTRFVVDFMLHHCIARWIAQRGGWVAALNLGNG

In assay [2] the target is T2, Human BAK-∆TM-His6 (human).
T2 sequence (Q16611 whole entry, looked up): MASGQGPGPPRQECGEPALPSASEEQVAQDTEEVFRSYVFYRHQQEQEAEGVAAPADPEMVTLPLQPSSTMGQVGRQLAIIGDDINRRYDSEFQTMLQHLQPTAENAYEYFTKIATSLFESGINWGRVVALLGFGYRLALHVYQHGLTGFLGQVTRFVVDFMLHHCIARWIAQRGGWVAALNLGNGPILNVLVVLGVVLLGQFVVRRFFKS
Briefly: SPR; MEAS-BAK-His6 captured (~500 RU) on Ni2+-charged NTA HisCap chip, peptides injected; 20 °C; 20 mM HEPES pH 8.0, 200 mM NaCl, 1 mM TCEP, 0.01% Tween20; 1:1 interaction model.

B1: WT BAK BH3 peptide (peptide)
peptide: SASEEQVAQDTEEVFRSYVFYRHQQEQEAEGVAAPADPEMVTLPLQPSSTMGQVGRQLAIIGDDINRRYDSEFQTMLQHLQPTAENAYEYFTKIATSLFESGINWGRVVALLGFGYRLALHVYQHGLTGFLGQVTRFVVDFMLHHCIARWIAQRGGWVAALNL
modifications: N-terminal acetylation; C-terminal amidation
With B1, the Supplementary Table 1: liposome permeabilization EC50 (peptide dose against AUC, 50 nM BAK; data of Supplementary Figure 4b; also printed in Supplementary Figure 3d) in assay [1] is 0.0358 µM.

B2: BAK BH3 peptide (peptide)
peptide: B1 peptide
modifications: N-terminal acetylation; C-terminal amidation
Take B2: in assay [2], the Kd came out at 67 µM.
